The record followed here is publication PMC3898201.

Experiment [1] deals with proteasome catalytic subunit β2 (in the purified rabbit 20S constitutive proteasome) (rabbit). In words: FRET or BRET. Background: Bioluminescence resonance energy transfer reports proximity on the nanometre scale.
Experiment [2] has as its target proteasome catalytic subunit β5 (in the purified rabbit 20S constitutive proteasome) (rabbit). In words: FRET or BRET.

Take “proteasome catalytic subunit β5 (in the purified rabbit 20S constitutive proteasome) (natural protein)”: the FRET efficiency E in experiment [1] is 0.45.

On to “proteasome catalytic subunit β1 (in the purified rabbit 20S constitutive proteasome) (natural protein)”, for which the FRET efficiency E in experiment [1] came out at 0.18. In experiment [2], this substance had an FRET efficiency E of 0.55 and an FRET efficiency E (fluorophores swapped: LKSCy3:UKPCy5) of 0.55.
